The RNAGym collection of RNA variant scans (doi:10.1073/pnas.2313332121)
This sample holds only a part of the variants without activity.

B1: TPR 5TU (parent)
chain: GGAUCUUCUCGAUCUAACAAAAAAGACAAAUCUGCCACAAAGCUUGAGAGCAUCUUCGGAUGCAGAGGCGGCAGCCUUCGGUGGCGCGAUAGCGCCAACGUUCUCAACUAUGACACGCAAAACGCGUGCUCCGUUGAAUGGAGUUUAUCAUG

Variants of: B1
Experiment: polymerase ribozyme fitness, log enrichment relative to wild type (log ratio); higher = more active; in vitro selection for triplet polymerase activity
Method in brief: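 Mutant libraries were PCR-built and transcribed for each subunit of a heterodimeric triplet polymerase ribozyme and selected for one round in triplicate at −7 °C, frozen, before gel excision of extended constructs and streptavidin-bead capture. Input and output libraries were Illumina-sequenced, keeping genotypes with ≥10 input reads and ≥1 read per output. Fitness is a logarithmic ratio of genotype to wild-type enrichment, in base 2, using inverse-variance-weighted replicate averages.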

Row | Variant | polymerase ribozyme fitness (log ratio)
1 | GGAUCUUCUCGAUCUAACAAAAAAGACAAAUCUGCCACAAAGCUUGAGAGCAUCUUCGGAUGCAGAGGCGGCAGCCUUCGGUGGCCCGAUAGCGCCAAGGUUCUCAACGAUGACACGCAAAACGCGUGAUCCGUUGAAUGGAGUUUAGCAUG [G86C C99G U109G C129A U148G] | ≤ -4.2
2 | GGAUCUUCUCGAUCUAACAAAAAAGACAAAUCUGCCACAAAGCUUGAGAGCAUCUUCGGAUGCAGAGGCGGCAGCCUUCGGUGGCACGAUAGCGCCAACGUUCUCAACUAUGACACGCAAAACGCGUGCUCCGUUGAAUGGAAUUUAUCAUG [G86A G143A] | -1.25
3 | GGAUCUUCUCGAUCUAACAAAAAAGACAAAUCUGCCACAAAGCUUGAGAGCAUCUUCGGAUGCAGAGGCGGCAGCCUUCGGUGGCACGAUAGCGCCAACGUUCUCAACUAUGACACGCAAAACGCGUGCUCCGUUGAAUGGAUUUUAUCAUG [G86A G143U] | -3.07
4 | GGAUCUUCUCGAUCUAACAAAAAAGACAAAUCUGCCACAAAGCUUGAGAGCAUCUUCGGAUGCAGAGGCGGCAGCCUUCGGUGGCACGAUAGCGCCAACGUUCUCAACUAUGACACGCAAAACGCGUGCUCCGUUGAAUGGACUUUAUCAUG [G86A G143C] | -2.14
5 | GGAUCUUCUCGAUCUAACAAAAAAGACAAAUCUGCCACAAAGCUUGAGAGCAUCUUCGGAUGCAGAGGCGGCAGCCUUCGGUGGCUCGAUAGCGCCAACGUUCUCAACUAUGACACGCAAAACGCGUGCUCCGUUGGAUGGAGUUUAUCAUG [G86U A137G] | -3.03
6 | GGAUCUUCUCGAUCUAACAAAAAAGACAAAUCUGCCACAAAGCUUGAGAGCAUCUUCGGAUGCAGAGGCGGCAGCCUUCGGUGGCACGAAAGCGCCAACGUUCUCAACUAUGACACGCAAAACGCGUGCUCCGUUGAAUGGAGUUUAUCAUG [G86A U90A] | -3.67
7 | GGAUCUUCUCGAUCUAACAAAAAAGACAAAUCUGCCACAAAGCUUGAGAGCAUCUUCGGAUGCAGAGGCGGCAGCCUUCGGUGGCACGAUAGCCCCAACGUUCUCAACUAUGACACGCAAAACGCGUGCUCUGUUGAAUGCAGUUUAUCAUG [G86A G94C C132U G141C] | ≤ -4.2
8 | GGAUCUUCUCGAUCUAACAAAAAAGACAAAUCUGCCACAAAGCUUGAGAGCAUCUUCGGAUGCAGAGGCGGCAGCCUUCGGUGGCCCGAUAGCGCCAACGGUCUCAACUAUGACACGCAAAACGCGUGCUCCGUUGAAUGGAGUUUAUCAUG [G86C U101G] | -2.8
9 | GGAUCUUCUCGAUCUAACAAAAAAGACAAAUCUGCCACAAAGCUUGAGAGCAUCUUCGGAUGCAGAGGCGGCAGCCUUCGGUGGCCCGAUAGCGCCAACGUUCUCAACUAUGACACGCAAAACGCGUGCUCCGUUAAAUGGAGUUUAUCAUG [G86C G136A] | -1.38
10 | GGAUCUUCUCGAUCUAACAAAAAAGACAAAUCUGCCACAAAGCUUGAGAGCAUCUUCGGAUGCAGAGGCGGCAGCCUUCGGUGGCUCGAUAGAACCAACGUUCUCAACUAUGACACGCAAAACGCGUGCUCCGUUGAAUGGAGUUUAUCAUG [G86U C93A G94A] | -0.505
11 | GGAUCUUCUCGAUCUAACAAAAAAGACAAAUCUGCCACAAAGCUUGAGAGCAUCUUCGGAUGCAGAGGCGGCAGCCUUCGGUGGCUCGAUAGCGCCAUCGUUCUCAACUAGGAUACGCAAAACGCGUGCUCCGUUGAAUGGAGUUUAUCAUG [G86U A98U U111G C114U] | -3.81
12 | GGAUCUUCUCGAUCUAACAAAAAAGACAAAUCUGCCACAAAGCUUGAGAGCAUCUUCGGAUGCAGAGGCGGCAGCCUUCGGUGGCCCGAUAGCGCCAACGUUCUCAACUAUGACACGCAAAACGCGUGCUUCGUUGAAUGGAGUUUAUCAUG [G86C C131U] | -2.55
13 | GGAUCUUCUCGAUCUAACAAAAAAGACAAAUCUGCCACAAAGCUUGAGAGCAUCUUCGGAUGCAGAGGCGGCAGCCUUCGGUGGCACGAUAGCGCCAACGUUCUCAACUAUGACACGCAAAACGCGUGCUCCGUUGAAUGUAGUUUAUCAUG [G86A G141U] | -1.07
14 | GGAUCUUCUCGAUCUAACAAAAAAGACAAAUCUGCCACAAAGCUUGAGAGCAUCUUCGGAUGCAGAGGCGGCAGCCUUCGGUGGCCCGAUAGCGCCAACGGUCUCAACUAUGACACGCAAAACUCGUGCUCCGUUGAAUGGAGUUUAUCAUA [G86C U101G G124U G152A] | -4.15
15 | GGAUCUUCUCGAUCUAACAAAAAAGACAAAUCUGCCACAAAGCUUGAGAGCAUCUUCGGAUGCAGAGGCGGCAGCCUUCGGUGGCCCGAUAGCGCCAACGUUCUCAACUAUGACACGCAAAACGCGUGCUCCGUUGAAUGGAGUUUAUCAUG [G86C] | -2.55
16 | GGAUCUUCUCGAUCUAACAAAAAAGACAAAUCUGCCACAAAGCUUGAGAGCAUCUUCGGAUGCAGAGGCGGCAGCCUUCGGUGGCUCGAUAGCGCCAACGUUCUCAACUAUGACACGCAAAACGCGUGCUCCGUUGAAUGGAGUUUAUCAUG [G86U] | -1.62
17 | GGAUCUUCUCGAUCUAACAAAAAAGACAAAUCUGCCACAAAGCUUGAGAGCAUCUUCGGAUGCAGAGGCGGCAGCCUUCGGUGGCCCGAUAGCGCCAACGUUCUCAACUAUGACACGCAAAACACGUGCUCCGUUGAAUGGAGAUUAUCAUG [G86C G124A U144A] | -2.44
18 | GGAUCUUCUCGAUCUAACAAAAAAGACAAAUCUGCCACAAAGCUUGAGAGCAUCUUCGGAUGCAGAGGCGGCAGCCUUCGGUGGCCCGAUAACGCCAACGUUCUCAACUAUGACACGCAAAACGCGUGCUCCGUUGAAUGGAGUUUAUCAUG [G86C G92A] | ≤ -4.2
19 | GGAUCUUCUCGAUCUAACAAAAAAGACAAAUCUGCCACAAAGCUUGAGAGCAUCUUCGGAUGCAGAGGCGGCAGCCUUCGGUGGCCCGAUAGCGCCAACGUUCUCAACUAUGACACGCAAAACGCGUGCUCCGUUGAAUGGAGUCUAUCAUG [G86C U145C] | -3.66
